The target in test [1] is rHuman P-Cadherin/Fc Chimera, CF (R&D Systems Cat#861-PC) (human) (UniProt P22223). The test is described as follows: MSD ECL multi-spot assay, antigen spotted on plate, Fab 1.57 uM; blank spot 797.
For test [2], the target named is rHuman EGF R/Fc Chimera, CF (R&D Systems Cat#344-ER) (human) (UniProt P00533). As to the kind of experiment: ECL (MSD Multi-Spot) binding, antigen spotted on plate; Fab 25 nM.
The target of test [3] is rHuman ErbB2/Fc Chimera, CF (R&D Systems Cat#1129-ER) (human) (UniProt P04626). The test is described as above.
The target of test [4] is rHuman HGF R/c-MET/Fc Chimera, CF (R&D Systems Cat#358-MT/CF) (human) (UniProt P08581). Described as above.
Test [5] concerns the target rHuman EGF R/Fc Chimera, CF (R&D Systems Cat#344-ER) (human) (UniProt P00533). As to the kind of experiment: ECL (MSD Multi-Spot) binding, antigen spotted on plate; Fab 500 nM.
For test [6], the target named is rHuman ErbB2/Fc Chimera, CF (R&D Systems Cat#1129-ER) (human) (UniProt P04626). The test is described as above.
Test [7] addresses rHuman HGF R/c-MET/Fc Chimera, CF (R&D Systems Cat#358-MT/CF) (human) (UniProt P08581). The test is described as above.
For test [8], the target named is rHuman EGF R/Fc Chimera, CF (R&D Systems Cat#344-ER) (human) (UniProt P00533). The test is described as follows: ECL (MSD Multi-Spot) binding, antigen spotted on plate; Fab 1.25 nM.
Test [9] deals with rHuman ErbB2/Fc Chimera, CF (R&D Systems Cat#1129-ER) (human) (UniProt P04626). The test is described as above.
Test [10] addresses rHuman HGF R/c-MET/Fc Chimera, CF (R&D Systems Cat#358-MT/CF) (human) (UniProt P08581). Described as above.
Test [11] has as its target rHuman EGF R/Fc Chimera, CF (R&D Systems Cat#344-ER) (human) (UniProt P00533). As to the kind of experiment: ECL (MSD Multi-Spot) binding, antigen spotted on plate; Fab 0.0625 nM.
For test [12], the target named is rHuman ErbB2/Fc Chimera, CF (R&D Systems Cat#1129-ER) (human) (UniProt P04626). The test is described as above.
Test [13] deals with rHuman HGF R/c-MET/Fc Chimera, CF (R&D Systems Cat#358-MT/CF) (human) (UniProt P08581). The description is as above.

B1: Fab VH1-46_IGHD3-10*01_IGHJ4*01 & O1_IGKJ1*01 (Fab, V domains shown)
VH: QVQLVQSGAEVKKPGASVKVSCKASGYTFTSYYMHWVRQAPGQGLEWMGIINPSGGSTSYAQKFQGRVTMTRDTSTSTVYMELSSLRSEDTAVYYCAREYYYGSGSYYNDYFDYWGQGTLVTVSS
VL: DIVMTQTPLSLPVTPGEPASISCRSSQSLLDSDDGNTYLDWYLQKPGQSPQLLIYTLSYRASGVPDRFSGSGSGTDFTLKISRVEAEDVGVYYCMQRIEFPSWTFGQGTKVEIK
Molecule B1 came in with an ECL signal in test [1] of 2030.

B2: Fab VH5-51_IGHD5-18*01>3_IGHJ4*01_G100K_G104T & V3-4_IGLJ1*01 (Fab, V domains shown)
VH: EVQLVQSGAEVKKPGESLKISCKGSGYSFTSYWIGWVRQMPGKGLEWMGIIYPGDSDTRYSPSFQGQVTISADKSISTAYLQWSSLKASDTAMYYCARRKYSYTYDYFDYWGQGTLVTVSS
VL: QTVVTQEPSFSVSPGGTVTLTCGLSSGSVSTSYYPSWYQQTPGQAPRTLIYSTNTRSSGVPDRFSGSILGNKAALTITGAQADDESDYYCVLYMGSGISYVFGTGTKVTVL
With B2, the ECL signal in test [2] worked out at 821; in test [3], 927; in [4] it was 805; in test [5], 1110; in [6], 957; in test [7] it was 1300. Further, the ECL signal came out at 729 in test [8]; 695 in test [9]; 774 in [10]; 736 in [11]; 692 in [12]; 643 in test [13].
